PMC6408514

What was measured:
Experiment in all cases: SEC; SEC-HPLC, Superose 6, PBS pH 7.4, samples at 2 mg/mL; 24-mer assembly
[1] = molecular target: human H-chain ferritin mutant A (Q14A/D15A/R22A) (human)
[2] = molecular target: human H-chain ferritin mutant B (F81A/Q83A) (human)
[3] = molecular target: human H-chain ferritin mutant C (Q14A/D15A/R22A/F81A/Q83A) (human)
[4] = molecular target: human L-chain ferritin mutant D (S5T/T14Q/S22R/L81F/D116E/A119K/A123D following H-Ft numbering) (human)

human H-chain ferritin mutant A (Q14A/D15A/R22A) (natural protein)
stoichiometry N [1]: 24

human H-chain ferritin mutant B (F81A/Q83A) (natural protein)
stoichiometry N [2]: 24

human H-chain ferritin mutant C (Q14A/D15A/R22A/F81A/Q83A) (natural protein)
stoichiometry N [3]: 24

human L-chain ferritin mutant D (S5T/T14Q/S22R/L81F/D116E/A119K/A123D following H-Ft numbering) (natural protein)
stoichiometry N [4]: 24
